Tested on: M. catarrhalis ATCC 49143
Assay: Proteolytic digestion of intact cells followed by hemagglutination test
Format: cell-based, Moraxella catarrhalis
Conditions: intact cells digested 1 hour at room temperature
Method: All proteases were obtained from Sigma Chemicals (St. Louis, Mo.). Immediately following the protease treatment, cells were washed once in PBS and resuspended in 1 ml of PBS and the hemagglutinating activity was tested. Additionally, protease-treated bacterial cells were extracted with octyl glucoside so the outer membrane proteins could be resolved to identify specific proteins that may have been digested by the proteases.

B1: proteinase K: Protease from Sigma Chemicals (protein, UniProt P06873 106-384, looked up)
Proteinase K: AAQTNAPWGLARISSTSPGTSTYYYDESAGQGSCVYVIDTGIEASHPEFEGRAQMVKTYYYSSRDGNGHGTHCAGTVGSRTYGVAKKTQLFGVKVLDDNGSGQYSTIIAGMDFVASDKNNRNCPKGVVASLSLGGGYSSSVNSAAARLQSSGVMVAVAAGNNNADARNYSPASEPSVCTVGASDRYDRRSSFSNYGSVLDIFGPGTSILSTWIGGSTRSISGTSMATPHVAGLAAYLMTLGKTTAASACRYIADTANKGDLSNIPFGTVNLLAYNNYQA
Effect of protease treatment on hemagglutination activity: destroyed the hemagglutination activity
